Assay results published in IntAct's records for PubMed 24019758.

B1: Transcription factor p65 (Mus musculus), Q04207 (parent)
chain: MDDLFPLIFPSEPAQASGPYVEIIEQPKQRGMRFRYKCEGRSAGSIPGERSTDTTKTHPTIKINGYTGPGTVRISLVTKDPPHRPHPHELVGKDCRDGYYEADLCPDRSIHSFQNLGIQCVKKRDLEQAISQRIQTNNNPFHVPIEEQRGDYDLNAVRLCFQVTVRDPAGRPLLLTPVLSHPIFDNRAPNTAELKICRVNRNSGSCLGGDEIFLLCDKVQKEDIEVYFTGPGWEARGSFSQADVHRQVAIVFRTPPYADPSLQAPVRVSMQLRRPSDRELSEPMEFQYLPDTDDRHRIEEKRKRTYETFKSIMKKSPFNGPTEPRPPTRRIAVPTRNSTSVPKPAPQPYTFPASLSTINFDEFSPMLLPSGQISNQALALAPSSAPVLAQTMVPSSAMVPLAQPPAPAPVLTPGPPQSLSAPVPKSTQAGEGTLSEALLHLQFDADEDLGALLGNSTDPGVFTDLASVDNSEFQQLLNQGVSMSHSTAEPMLMEYPEAITRLVTGSQRPPDPAPTPLGTSGLPNGLSGDEDFSSIADMDFSALLSQISS

How the values were obtained:
cbp_mouse Crebbp, P45481 [1] = variants of: B1; conditions: with cbp_mouse Crebbp
[2] = variants of: B1; conditions: with ep300_mouse Ep300, B2RWS6
cbp_mouse Crebbp, P45481 [3] = variants of: B1; conditions: with cbp_mouse Crebbp; remark: listed apart in the source
cbp_mouse Crebbp, P45481 [4] = variants of: B1; conditions: with cbp_mouse Crebbp; remark: listed apart in the source
cbp_mouse Crebbp, P45481 [5] = variants of: B1; conditions: with cbp_mouse Crebbp; remark: listed apart in the source

Sequence of ep300_mouse Ep300, B2RWS6 (B2RWS6 whole entry): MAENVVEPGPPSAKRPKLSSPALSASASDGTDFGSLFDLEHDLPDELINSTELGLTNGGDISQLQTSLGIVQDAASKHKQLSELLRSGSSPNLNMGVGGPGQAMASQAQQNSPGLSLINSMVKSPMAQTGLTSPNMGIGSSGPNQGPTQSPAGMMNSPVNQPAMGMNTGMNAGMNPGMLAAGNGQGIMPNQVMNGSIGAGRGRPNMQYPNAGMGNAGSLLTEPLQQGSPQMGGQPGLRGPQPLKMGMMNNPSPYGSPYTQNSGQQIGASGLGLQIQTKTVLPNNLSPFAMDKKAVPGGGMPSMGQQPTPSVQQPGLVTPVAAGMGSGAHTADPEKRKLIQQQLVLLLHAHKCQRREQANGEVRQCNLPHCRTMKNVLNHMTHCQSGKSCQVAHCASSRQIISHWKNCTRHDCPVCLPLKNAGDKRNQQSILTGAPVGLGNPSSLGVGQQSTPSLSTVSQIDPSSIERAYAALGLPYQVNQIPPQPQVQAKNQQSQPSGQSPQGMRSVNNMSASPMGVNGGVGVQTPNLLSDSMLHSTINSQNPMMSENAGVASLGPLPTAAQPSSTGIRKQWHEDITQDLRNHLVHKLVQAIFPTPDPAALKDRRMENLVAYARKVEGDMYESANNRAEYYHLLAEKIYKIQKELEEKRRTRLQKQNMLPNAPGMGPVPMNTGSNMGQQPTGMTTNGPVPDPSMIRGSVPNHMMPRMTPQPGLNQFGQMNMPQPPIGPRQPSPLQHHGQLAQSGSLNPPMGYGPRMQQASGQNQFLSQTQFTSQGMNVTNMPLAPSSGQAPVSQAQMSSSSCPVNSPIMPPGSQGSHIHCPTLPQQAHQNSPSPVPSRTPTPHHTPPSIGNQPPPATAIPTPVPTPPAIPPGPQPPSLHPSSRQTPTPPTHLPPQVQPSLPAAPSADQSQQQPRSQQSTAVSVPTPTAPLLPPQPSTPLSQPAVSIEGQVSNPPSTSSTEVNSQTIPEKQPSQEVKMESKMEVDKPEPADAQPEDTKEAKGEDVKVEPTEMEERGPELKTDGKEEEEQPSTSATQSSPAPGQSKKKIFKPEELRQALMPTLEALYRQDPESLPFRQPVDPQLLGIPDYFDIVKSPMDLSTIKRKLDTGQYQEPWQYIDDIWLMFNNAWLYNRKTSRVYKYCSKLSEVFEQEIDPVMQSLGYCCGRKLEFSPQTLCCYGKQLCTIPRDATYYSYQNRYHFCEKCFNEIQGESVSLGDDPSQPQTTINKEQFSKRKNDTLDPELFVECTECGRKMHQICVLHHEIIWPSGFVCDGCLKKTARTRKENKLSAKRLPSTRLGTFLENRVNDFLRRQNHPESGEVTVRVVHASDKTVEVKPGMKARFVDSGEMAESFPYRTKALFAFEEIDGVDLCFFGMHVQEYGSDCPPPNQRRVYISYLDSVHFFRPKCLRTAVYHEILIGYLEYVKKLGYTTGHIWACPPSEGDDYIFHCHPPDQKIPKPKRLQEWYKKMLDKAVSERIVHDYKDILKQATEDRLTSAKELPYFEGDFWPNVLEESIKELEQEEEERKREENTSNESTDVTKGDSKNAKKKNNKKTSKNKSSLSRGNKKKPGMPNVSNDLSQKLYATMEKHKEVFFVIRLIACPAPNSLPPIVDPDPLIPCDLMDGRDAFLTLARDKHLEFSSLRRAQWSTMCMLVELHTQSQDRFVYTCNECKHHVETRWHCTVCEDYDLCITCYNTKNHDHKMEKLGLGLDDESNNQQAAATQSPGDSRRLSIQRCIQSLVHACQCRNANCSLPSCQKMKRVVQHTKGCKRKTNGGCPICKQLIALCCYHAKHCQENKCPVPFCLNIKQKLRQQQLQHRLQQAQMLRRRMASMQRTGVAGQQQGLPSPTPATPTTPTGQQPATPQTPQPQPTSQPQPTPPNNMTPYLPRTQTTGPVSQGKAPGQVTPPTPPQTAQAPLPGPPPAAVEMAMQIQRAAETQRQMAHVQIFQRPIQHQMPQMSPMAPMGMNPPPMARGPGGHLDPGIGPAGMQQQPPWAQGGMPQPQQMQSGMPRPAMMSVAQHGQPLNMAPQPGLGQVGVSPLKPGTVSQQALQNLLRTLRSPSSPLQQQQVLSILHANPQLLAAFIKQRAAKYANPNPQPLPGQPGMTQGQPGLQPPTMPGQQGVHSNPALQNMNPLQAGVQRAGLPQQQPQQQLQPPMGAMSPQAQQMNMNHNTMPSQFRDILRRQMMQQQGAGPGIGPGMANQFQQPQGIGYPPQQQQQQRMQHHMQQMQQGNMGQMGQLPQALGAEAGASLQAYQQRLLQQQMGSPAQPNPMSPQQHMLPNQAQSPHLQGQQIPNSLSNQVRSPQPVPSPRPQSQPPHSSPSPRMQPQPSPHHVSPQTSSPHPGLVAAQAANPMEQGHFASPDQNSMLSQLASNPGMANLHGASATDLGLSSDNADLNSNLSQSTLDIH
Sequence of cbp_mouse Crebbp, P45481 (P45481 whole entry): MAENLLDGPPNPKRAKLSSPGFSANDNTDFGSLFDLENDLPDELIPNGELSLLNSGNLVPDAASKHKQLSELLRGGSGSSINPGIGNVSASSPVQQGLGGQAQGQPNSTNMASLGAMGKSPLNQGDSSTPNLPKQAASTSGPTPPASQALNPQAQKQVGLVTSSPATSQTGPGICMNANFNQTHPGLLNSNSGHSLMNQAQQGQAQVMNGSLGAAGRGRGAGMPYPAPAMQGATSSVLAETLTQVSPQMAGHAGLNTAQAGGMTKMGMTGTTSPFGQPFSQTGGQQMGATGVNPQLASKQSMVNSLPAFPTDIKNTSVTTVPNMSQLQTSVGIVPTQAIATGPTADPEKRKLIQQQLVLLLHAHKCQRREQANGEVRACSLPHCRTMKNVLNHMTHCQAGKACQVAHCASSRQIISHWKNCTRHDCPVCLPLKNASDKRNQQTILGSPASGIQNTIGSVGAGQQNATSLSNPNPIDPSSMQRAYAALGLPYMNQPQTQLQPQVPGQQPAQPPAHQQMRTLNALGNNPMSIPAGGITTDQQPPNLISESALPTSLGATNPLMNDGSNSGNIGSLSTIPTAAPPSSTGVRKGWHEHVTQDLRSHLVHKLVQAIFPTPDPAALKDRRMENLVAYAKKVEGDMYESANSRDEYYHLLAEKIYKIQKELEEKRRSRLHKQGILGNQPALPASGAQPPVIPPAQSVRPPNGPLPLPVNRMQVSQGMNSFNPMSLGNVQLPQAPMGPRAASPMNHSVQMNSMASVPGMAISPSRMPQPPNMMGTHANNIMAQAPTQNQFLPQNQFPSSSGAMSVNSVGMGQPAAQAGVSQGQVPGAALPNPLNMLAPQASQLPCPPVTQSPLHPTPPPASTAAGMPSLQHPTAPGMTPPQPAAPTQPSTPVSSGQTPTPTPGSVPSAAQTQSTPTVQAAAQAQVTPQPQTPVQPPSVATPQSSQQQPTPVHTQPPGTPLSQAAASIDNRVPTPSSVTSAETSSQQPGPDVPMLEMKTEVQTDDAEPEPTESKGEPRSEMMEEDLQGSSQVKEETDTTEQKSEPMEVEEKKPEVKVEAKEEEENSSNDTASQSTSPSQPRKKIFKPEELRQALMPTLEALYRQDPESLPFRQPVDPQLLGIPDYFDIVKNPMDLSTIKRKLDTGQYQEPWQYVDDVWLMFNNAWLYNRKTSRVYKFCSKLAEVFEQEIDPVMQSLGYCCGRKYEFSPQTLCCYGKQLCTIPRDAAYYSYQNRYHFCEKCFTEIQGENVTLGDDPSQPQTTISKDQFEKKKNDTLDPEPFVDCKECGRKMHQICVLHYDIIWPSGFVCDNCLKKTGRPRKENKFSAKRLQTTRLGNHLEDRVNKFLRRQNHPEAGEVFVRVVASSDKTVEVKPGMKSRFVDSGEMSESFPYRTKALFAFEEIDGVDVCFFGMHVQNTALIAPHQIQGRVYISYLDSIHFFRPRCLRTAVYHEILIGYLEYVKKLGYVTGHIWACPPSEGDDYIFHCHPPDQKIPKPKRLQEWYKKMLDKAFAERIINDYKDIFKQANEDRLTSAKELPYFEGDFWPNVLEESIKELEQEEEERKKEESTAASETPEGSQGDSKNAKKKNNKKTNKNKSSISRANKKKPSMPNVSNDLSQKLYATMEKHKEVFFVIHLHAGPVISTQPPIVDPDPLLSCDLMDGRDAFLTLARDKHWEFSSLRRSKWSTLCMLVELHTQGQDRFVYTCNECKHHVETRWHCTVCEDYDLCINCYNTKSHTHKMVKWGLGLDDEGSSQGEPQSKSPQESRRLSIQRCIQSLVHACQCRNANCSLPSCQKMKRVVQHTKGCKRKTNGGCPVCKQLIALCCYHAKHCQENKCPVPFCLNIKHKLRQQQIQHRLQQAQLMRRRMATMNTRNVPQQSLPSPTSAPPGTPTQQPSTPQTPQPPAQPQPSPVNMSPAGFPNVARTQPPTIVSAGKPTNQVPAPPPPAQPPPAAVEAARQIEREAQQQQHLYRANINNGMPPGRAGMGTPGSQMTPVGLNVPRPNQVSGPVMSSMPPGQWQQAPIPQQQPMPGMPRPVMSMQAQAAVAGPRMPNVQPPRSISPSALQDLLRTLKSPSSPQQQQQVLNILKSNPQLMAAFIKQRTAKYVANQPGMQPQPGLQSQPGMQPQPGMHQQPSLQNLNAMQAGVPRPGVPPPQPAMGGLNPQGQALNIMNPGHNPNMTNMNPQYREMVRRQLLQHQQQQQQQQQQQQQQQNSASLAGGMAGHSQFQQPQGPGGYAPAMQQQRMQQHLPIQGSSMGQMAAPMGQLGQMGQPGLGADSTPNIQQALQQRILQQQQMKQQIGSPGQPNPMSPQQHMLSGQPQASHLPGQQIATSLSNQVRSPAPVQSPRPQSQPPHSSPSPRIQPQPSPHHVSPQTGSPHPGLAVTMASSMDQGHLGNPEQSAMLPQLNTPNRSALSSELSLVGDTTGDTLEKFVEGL

Q: What does the source list for S276A?
A: effect of a mutation on the interaction (cbp_mouse Crebbp, P45481 [1]): decreasing interaction strength; effect of a mutation on the interaction [2]: decreasing interaction strength

Q: How did the “effect of a mutation on the interaction” value (cbp_mouse Crebbp, P45481 [3]) turn out when L449A;F473A was run?
A: disrupting interaction strength

Q: What about the “effect of a mutation on the interaction” value (cbp_mouse Crebbp, P45481 [4]) of the same variant?
A: disrupting interaction strength

Q: What about the “effect of a mutation on the interaction” value (cbp_mouse Crebbp, P45481 [1]) of the same variant?
A: decreasing interaction strength

Q: What about the “effect of a mutation on the interaction” value [2] of the same variant?
A: decreasing interaction strength

Q: Which “effect of a mutation on the interaction” value (cbp_mouse Crebbp, P45481 [3]) does the source give for L449A;S467A;F473A here?
A: disrupting interaction strength

Q: What about the “effect of a mutation on the interaction” value (cbp_mouse Crebbp, P45481 [1]) of the same variant?
A: decreasing interaction strength

Q: With F473A as the variant, how does the “effect of a mutation on the interaction” value (cbp_mouse Crebbp, P45481 [4]) read?
A: disrupting interaction strength

Q: What does the source list for S467A?
A: effect of a mutation on the interaction (cbp_mouse Crebbp, P45481 [1]): decreasing interaction strength; effect of a mutation on the interaction [2]: decreasing interaction strength

Q: L449A was tested. Which “effect of a mutation on the interaction” value (cbp_mouse Crebbp, P45481 [4]) did it give?
A: disrupting interaction strength

Q: And the “effect of a mutation on the interaction” value (cbp_mouse Crebbp, P45481 [5])?
A: decreasing interaction strength

Q: Which results are given for L465A?
A: effect of a mutation on the interaction (cbp_mouse Crebbp, P45481 [4]): disrupting interaction strength; effect of a mutation on the interaction (cbp_mouse Crebbp, P45481 [5]): decreasing interaction strength
